The values below come from patent US10206886B2, “Lipid nanoparticles for wound healing” (Praxis Biopharma Research Institute, priority 2013, dated 2019).

For series [1], the system named is db/db mice. Nature of the series: Histological estimation of wound healing: inflammation score (Cotran scale 0-4). Format: in vivo. The note with it: 75 μg rhEGF intralesionally (free rhEGF twice a week; rhEGF-MS once).
Series [2] has as its system Large White pigs. Nature of the series: Histological assessment in pigs: wound maturity and healing quality (Cotran criteria). Format: in vivo. Conditions: rhEGF-NLC 20 μg topically, free rhEGF 75 μg intralesionally. As to the method:
(§1) Treatment administration began 24 hours after wound induction (day 1 of the study) to allow primary homeostasis, platelet adhesion and aggregation, and activation of the coagulation cascade. The animals were randomly divided into three groups (n=2): (i) empty NLC, (ii) 20 μg rhEGF-NLC and (iii) 75 μg free rhEGF. Nanoparticles previously resuspended in 150 μl of vehicle (0.5% carboxymethylcellulose in 0.9% saline) were topically administered twice a week by spreading them over the wound bed. Free rhEGF, resuspended in 1 ml of vehicle, was intralesionally administered twice a week.
Complete skin thickness biopsies from the centre of the unhealed wound to the healthy margin (2 mm) were collected using a sterile scalpel. Collected samples were immediately fixed in 4% formalin, embedded in paraffin and excised in 5-μm thick layers. Samples were stained with haematoxilyn-eosin (HE) for morphological observations. Biopsies were collected on day 15 for wounds 1, 2 and 3 and on days 25 and 43 for all of the wounds. On day 36, wound images were taken but no biopsies were collected not to delay wound healing.
Wound healing was determined in terms of the re-epithelization grade by measuring the newly formed epithelia, and wound maturity and healing quality according to the Cotran et al. (2000) criteria.

Series [3] relates to db/db mice. Nature of the series: In vivo wound healing, wound closure (wound area). Conditions: 75 μg rhEGF intralesionally (free rhEGF twice a week; rhEGF-MS once).
A further series concerns Balb/C 3T3 fibroblast. Description: Proliferation assay with rhEGF-loaded nanoparticles (CCK-8). Format: cell-based. Conditions: 15 ng/ml rhEGF, after 48 hours and 72 hours, FIG. 1. As to the method:
24-well plate was used for the proliferation assay. 35000 Balb/C 3T3 fibroblast resuspended in 1 ml of completed culture medium (DMEM supplemented with 10% FCS) were seeded in each well. After 8 hours of incubation, the medium was replaced by 1 ml of 0.2% FCS supplemented DMEM and cells were incubated overnight. Then, medium was replaced by 1 ml of: (i) 0.2% FCS-supplemented DMEM, (ii) 15 ng/ml of free rhEGF in 0.2% FCS-supplemented DMEM, (iii) empty SLN in 0.2% FCS-supplemented DMEM, (iv) 15 ng/ml of rhEGF-loaded SLN (rhEGF-SLN) in 0.2% FCS-supplemented DMEM, (v) empty NLC in 0.2% FCS-supplemented DMEM and (vi) 15 ng/ml of rhEGF-loaded NLC (rhEGF-NLC) in 0.2% FCS-supplemented DMEM.
The cells were cultured under the same conditions for 24 hours, 48 hours and 72 hours. The experiments were performed in triplicate. After the different incubation intervals, 100 μl of CCK-8 (Sigma-Aldrich, Saint Louise, USA) was added to each well (Zhou, Y., Qian, M., Liang, Y., Liu, Y., Yang, X., Jiang, T., Wang, Y., 2011. Effects of Leukemia Inhibitory Factor on Proliferation and Odontoblastic Differentiation of Human Dental Pulp Cells. J. Endod. 37, 819-824). After 4 hours of incubation, absorbance was read at 450 nm and at 650 nm as the reference wavelength. The absorbance was directly proportional to the number of living cells in culture.

Series [4] in a line: rhEGF plasma concentration (systemic absorption), ELISA. Format: in vivo, pigs. The note with it: 30 minutes after first dose; free rhEGF 75 μg intralesionally. The procedure:
as §1
In addition, plasma samples from the rhEGF-NLC and free rhEGF treated animals were collected to assess rhEGF systemic absorption. rhEGF detection was performed by ELISA (human EGF ELISA development kit, PeproTech). Samples were drawn when the plasma rhEGF levels were expected to be higher. Thus, samples from the animals treated with rhEGF-NLC were collected on day 1 of the experiment (prior to the treatment administration), 4 hours and 24 hours after administration. Plasma samples from the animals treated with free rhEGF were obtained just after administration and 30 minutes after the first dose. […]
A general note: In an ELISA, binding on a coated surface is turned into a signal by an enzyme label.

For series [5], the system named is Large White pigs. Description: In vivo wound healing in pigs, serial analysis of healed wounds (closure above 95%). Conditions: rhEGF-NLC 20 μg topically, free rhEGF 75 μg intralesionally, twice a week. An excerpt: All the protocols and procedures used were previously approved by the Institutional Animal Care and Use Committee from the Jesús Usón Minimally Invasive Surgery Centre (JUMISC). Six female Large White pigs, with a mean weight of 26.82±2.90 kg at the beginning of the study, distributed in individual pens of 2.90 m×1.35 m were used. All the animals of the study were randomly distributed in acclimated rooms, where the following housing conditions were established: 12-hour light-dark cycle, temperature between 20 and 25° C., eight air changes per hour with HEPA-filtered ventilation and relative humidity between 50 and 70%. As pen environmental enrichment, hanging chains and chewing rubber toys were installed as chewable elements. After an acclimatization period, the animals were identified by ear tag codes to be included in the study. […]
Wound healing kinetic was determined by measuring the wound closure (percentage of initial wound area closed) on days 1, 15, 25, 36 and 43. The wound area was assessed, in a standardized manner, taken photographs perpendicularly to the wound surface, using the same illumination and placing a transparent plastic sterile ruler next to the wounds to introduce a metric reference in the pictures for further processing. The wound area was calculated using the image software ImageJ (see section 5.3). […]

Series [6] deals with db/db mice. Nature of the series: Histological estimation of wound healing: re-epithelization score (Sinha criteria 0-4). In kind it is in vivo. Conditions: 75 μg rhEGF intralesionally (free rhEGF twice a week; rhEGF-MS once), scale 0-4.

B1: free rhEGF: Non-encapsulated recombinant human epidermal growth factor; 75 μg of lyophilised rhEGF similar to commercialised Heberprot (protein, UniProt P01133 23-1207, looked up)
Pro-epidermal growth factor: PQHWSCPEGTLAGNGNSTCVGPAPFLIFSHGNSIFRIDTEGTNYEQLVVDAGVSVIMDFHYNEKRIYWVDLERQLLQRVFLNGSRQERVCNIEKNVSGMAINWINEEVIWSNQQEGIITVTDMKGNNSHILLSALKYPANVAVDPVERFIFWSSEVAGSLYRADLDGVGVKALLETSEKITAVSLDVLDKRLFWIQYNREGSNSLICSCDYDGGSVHISKHPTQHNLFAMSLFGDRIFYSTWKMKTIWIANKHTGKDMVRINLHSSFVPLGELKVVHPLAQPKAEDDTWEPEQKLCKLRKGNCSSTVCGQDLQSHLCMCAEGYALSRDRKYCEDVNECAFWNHGCTLGCKNTPGSYYCTCPVGFVLLPDGKRCHQLVSCPRNVSECSHDCVLTSEGPLCFCPEGSVLERDGKTCSGCSSPDNGGCSQLCVPLSPVSWECDCFPGYDLQLDEKSCAASGPQPFLLFANSQDIRHMHFDGTDYGTLLSQQMGMVYALDHDPVENKIYFAHTALKWIERANMDGSQRERLIEEGVDVPEGLAVDWIGRRFYWTDRGKSLIGRSDLNGKRSKIITKENISQPRGIAVHPMAKRLFWTDTGINPRIESSSLQGLGRLVIASSDLIWPSGITIDFLTDKLYWCDAKQSVIEMANLDGSKRRRLTQNDVGHPFAVAVFEDYVWFSDWAMPSVMRVNKRTGKDRVRLQGSMLKPSSLVVVHPLAKPGADPCLYQNGGCEHICKKRLGTAWCSCREGFMKASDGKTCLALDGHQLLAGGEVDLKNQVTPLDILSKTRVSEDNITESQHMLVAEIMVSDQDDCAPVGCSMYARCISEGEDATCQCLKGFAGDGKLCSDIDECEMGVPVCPPASSKCINTEGGYVCRCSEGYQGDGIHCLDIDECQLGEHSCGENASCTNTEGGYTCMCAGRLSEPGLICPDSTPPPHLREDDHHYSVRNSDSECPLSHDGYCLHDGVCMYIEALDKYACNCVVGYIGERCQYRDLKWWELRHAGHGQQQKVIVVAVCVVVLVMLLLLSLWGAHYYRTQKLLSKNPKNPYEESSRDVRSRRPADTEDGMSSCPQPWFVVIKEHQDLKNGGQPVAGEDGQAADGSMQPTSWRQEPQLCGMGTEQGCWIPVSSDKGSCPQVMERSFHMPSYGTQTLEGGVEKPHSLLSANPLWQQRALDPPHQMELTQ
modifications: Pro-epidermal growth factor
notes: Non-encapsulated recombinant human epidermal growth factor; 75 μg of lyophilised rhEGF similar to commercialised Heberprot
In the case of B1, the “Inflammation score Day 16” value with db/db mice [1] is recorded as 2.75 ± 0.95. Also, in the series on db/db mice [1] (listed as Free rhEGF), the “Inflammation score Day 8” value was 1.75 ± 0.71. In addition, in the series on db/db mice [1] (listed as rhEGF), the “Inflammation score Day 8” value is 2.13±0.64. Besides, the “extension of inflammatory tissue (Grade 2)” value in the series with Large White pigs [2] (day 15, FIG. 10A) is given as “mainly showed a diffuse acute inflammation”. The “wound maturity and healing quality (healing grade)” value in the series with Large White pigs [2] (day 25, FIG. 10B) is listed as “still showed chronic inflammation”. Moreover, in the series with db/db mice [3], the “Wound healing 4th day” value was 8.42 ± 3.96%, the “Wound healing 7th day” value was 19.94 ± 5.21%, the “Wound healing 11th day” value came to 44.80 ± 2.64% and the “Wound healing 14th day” value is reported as 61.83 ± 2.99%. In addition, the “cell proliferation compared with control groups” value in the series with Balb/C 3T3 fibroblast is given as “greater cell proliferation”. This molecule returned a rhEGF plasma concentrations in series [4] of 0.20 ± 0.01 ng/mL. The “percentage of healed wounds” value with Large White pigs [5] (day 25) amounted to 40%. Besides, in the series on Large White pigs [5] (day 36), the wound closure state entry was “completely closed”. Moreover, in the series with db/db mice [6], the “Re-epithelization score Day 8” value is reported as 1.25±0.89 and the “Re-epithelization score Day 16” value is listed as 2.71 ± 0.49. Also, in the series with db/db mice [6] (listed as Free rhEGF), the “Re-epithelization score Day 8” value is on record as 1.25 ± 0.89.
